{"source": "patent US6465220B1", "about": "“Glycosylation using GalNac-T4 transferase” (GlycoZym ApS, priority 1998, dated 2002)", "key": {"[1]": {"system": "T1, C[C@H](NC(=O)[C@H](C)NC(=O)[C@@H](NC(=O)[C@@H](NC(=O)[C@H](CCC(=O)O)NC(=O)[C@@H]1CCCN1C(=O)[C@@H]1CCCN1C(=O)[C@H](C)NC(=O)[C@H](CO)NC(=O)[C@H](CO)NC(=O)[C@H](CO)NC(=O)[C@@H]1CCCN1C(=O)[C@@H]1CCCN1C(=O)[C@H](C)NC(=O)[C@@H]1CCCN1C(=O)[C@@H](NC(=O)[C@@H](NC(=O)[C@H](C)NC(=O)[C@H](CO)NC(=O)[C@@H]1CCCN1C(=O)[C@@H](NC(=O)[C@@H]1CCCN1C(=O)[C@@H]1CCCN1C(=O)[C@@H](N)CS)[C@@H](C)O)[C@@H](C)O)[C@@H](C)O)[C@@H](C)O)[C@@H](C)O)C(=O)O", "T1 construct": "Control constructs pAcGP67-GalNAc-T1-sol, pAcGP67-GalNAc-T2-sol, pAcGP67-GalNAc-T3-sol, and pAcGP67-O^2-sol were prepared as previously described; made in house; host or cells: insect cells (baculovirus, pAcGP67)", "test": "GalNAc-transferase assay with purified recombinant GalNAc-T2", "format": "biochemical, human", "details": "other: acceptor substrate; pH 7.5", "protocol": "The following examples are provided to illustrate certain preferred embodiments of the invention, and should be considered as illustration and not as limitation. In the examples, GalNAc-transferase assays were performed in 50 μl total reaction mixtures containing 25 mM cacodylate (pH 7.5), 10 mM MnCl2, 0.1-0.25% Triton X-100, 150-200 μM UDP-[^14C]-GalNAc (4,000 cpm/nmole) (Amersham) and 0.06-1 mM acceptor peptides. Peptides were either synthesized or obtained from Carlbiotech (Copenhagen), or Neosystems (Strasbourg), and quality was ascertained by amino acid analysis and mass spectrometry. […] Products were quantified by scintillation counting after chromatography on Dowex-1, octadecyl silica cartridges (Bakerbond), or HPLC (PC3.2/3 or mRPC C2/C18 SC2.1/10 Pharmacia, Smart System). […]\nActivities measured with the mucin derived substrates, Muc7, EA2, and Muc2 (see Table I for structures and SEQ ID NOs:19, 25 and 18, respectively), were only 2-7 fold over background values. […] GalNAc-T4 was expressed in High Five cells and purified to near homogeneity, however, very low endogenous activity was detected with some substrates in the same fractions when medium from cells infected with irrelevant expression constructs were used in the same purification strategy. […]"}, "[2]": {"system": "T2, C[C@H](NC(=O)[C@H](C)NC(=O)[C@@H](NC(=O)[C@@H](NC(=O)[C@H](CCC(=O)O)NC(=O)[C@@H]1CCCN1C(=O)[C@@H]1CCCN1C(=O)[C@H](C)NC(=O)[C@H](CO)NC(=O)[C@H](CO)NC(=O)[C@H](CO)NC(=O)[C@@H]1CCCN1C(=O)[C@@H]1CCCN1C(=O)[C@H](C)NC(=O)[C@@H]1CCCN1C(=O)[C@@H](NC(=O)[C@@H](NC(=O)[C@H](C)NC(=O)[C@H](CO)NC(=O)[C@@H]1CCCN1C(=O)[C@@H](NC(=O)[C@@H]1CCCN1C(=O)[C@@H]1CCCN1C(=O)[C@@H](N)CS)[C@@H](C)O)[C@@H](C)O)[C@@H](C)O)[C@@H](C)O)[C@@H](C)O)C(=O)O", "T2 construct": "made in house; host or cells: High Five insect cells (baculovirus, pAcGP67 vector)", "test": "GalNAc-transferase assay with purified recombinant GalNAc-T4", "format": "biochemical, human", "details": "other: acceptor substrate; pH 7.5", "method": "In the examples, GalNAc-transferase assays were performed in 50 μl total reaction mixtures containing 25 mM cacodylate (pH 7.5), 10 mM MnCl2, 0.1-0.25% Triton X-100, 150-200 μM UDP-[^14C]-GalNAc (4,000 cpm/nmole) (Amersham) and 0.06-1 mM acceptor peptides. […] Products were quantified by scintillation counting after chromatography on Dowex-1, octadecyl silica cartridges (Bakerbond), or HPLC (PC3.2/3 or mRPC C2/C18 SC2.1/10 Pharmacia, Smart System)."}}, "data": [{"substance": "GalNAc-T2 (Homo sapiens)", "values": [{"measurement": "Km", "setting": "[1]", "result": 0.015, "unit": "mM"}, {"measurement": "Vmax", "setting": "[1]", "result": 0.64, "unit": "nmol/min/µg"}]}, {"substance": "GalNAc-T4 (Homo sapiens)", "values": [{"measurement": "Km", "setting": "[2]", "result": 0.48, "unit": "mM"}, {"measurement": "Vmax", "setting": "[2]", "result": 0.25, "unit": "nmol/min/µg"}]}]}
